Target: T1, p38 MAP kinase (Homo sapiens, UniProt Q16539)
T1 construct: a PCR fragment containing the coding region of the p38 MAP kinase cDNA; GST (N); made in house; host or cells: bacteria
Assay: Substrate phosphorylation by bacterially-expressed p38 MAP kinase, PhosphorImager quantitation
Format: biochemical
Details: 30 minutes reaction; ATF2 = 1.0
Experimental: Substrate phosphorylation by p38 MAP kinase was examined by incubation of bacterially-expressed p38 MAP kinase with IKB, cMyc, EGF-R, cytoplasmic phospholipase A2 (cPLA2), c-Jun, and mutated ATF2 (Thr^69,71) and ATP [γ-^32P] (Raingeaud et al. (1995) J. Biol. Chem 270:7420, herein specifically incorporated by reference). GST-IKB was provided by Dr D. Baltimore (Massachusetts Institute of Technology). GST-cMyc (Alvarez et al. (1991) J. Biol. Chem. 266:15277), GST-EGF-R (residues 647-688) (Koland et al. (1990) Biochem. Biophys. Res. Commun. 166:90), and GST-c-Jun (Dérijard et al. (1994) supra) have been described. The phosphorylation reaction was terminated after 30 minutes by addition of Laemmli sample buffer. The phosphorylated proteins were resolved by SDS-PAGE and detected by autoradiography. The rate phosphorylation of the substrate proteins was quantitated by PhosphorImager (Molecular Dynamics Inc.) analysis. The relative phosphorylation of ATF2, MBP, EGF-R, and IKB was 1.0, 0.23, 0.04, and 0.001, respectively.

T1 sequence (Q16539 whole entry, the tested form may be a part): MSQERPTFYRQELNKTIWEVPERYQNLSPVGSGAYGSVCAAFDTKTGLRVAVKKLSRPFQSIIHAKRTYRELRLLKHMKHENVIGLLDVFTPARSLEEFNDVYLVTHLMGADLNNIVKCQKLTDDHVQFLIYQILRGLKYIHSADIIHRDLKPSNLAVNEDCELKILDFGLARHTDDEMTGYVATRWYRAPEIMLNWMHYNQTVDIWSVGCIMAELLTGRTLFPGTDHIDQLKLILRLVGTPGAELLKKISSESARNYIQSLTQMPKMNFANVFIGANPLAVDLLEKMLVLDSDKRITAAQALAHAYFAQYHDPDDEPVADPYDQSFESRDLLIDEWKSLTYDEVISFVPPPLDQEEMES

- relative phosphorylation of substrate protein by p38 MAP kinase: 1.0
B1: ATF2: Activating Transcription Factor-2, substrate protein of p38 (protein)
chain: MKFKLHVNSARQYKDLWNMSDDKPFLCTAPGCGQRFTNEDHLAVHKHKHEMTLKFGPARNDSVIVADQTPTPTRFLKNCEEVGLFNELASPFENEFKKASEDDIKKMPL

From US6610523B1, “Cytokine-, stress-, and oncoprotein-activated human protein kinase kinases” (University of Massachusetts, priority 1995, dated 2003)
